Where two headings read alike, the source gives them in different places.

For assay [1], the target named is T1, FcRn-p3 fusion protein (human, UniProt P55899 24-297; P61769 21-119).
T1 construct: baculovirus expressed; coated on ELISA wells; not shown: amino terminal part of bacteriophage p3 protein and CVDE protein
The assay is described as follows: phage ELISA pH6. In general terms: ELISA stands for enzyme-linked immunosorbent assay.

Assay [2] concerns the target T1, FcRn-p3 fusion protein. The assay is described as follows: phage ELISA pH6. The source holds these as a separate data set.
Assay [3] deals with T1, FcRn-p3 fusion protein. The assay is described as follows: phage ELISA pH6. The source holds these as a separate data set.
The target of assay [4] is T1, FcRn-p3 fusion protein. Nature of the assay: phage ELISA pH6 (est.).
Assay [5] deals with T1, FcRn-p3 fusion protein. The assay is described as follows: phage ELISA pH6 (est.). This is another data set of the same source.

T1 sequence (P55899 24-297, chain 1 of 2): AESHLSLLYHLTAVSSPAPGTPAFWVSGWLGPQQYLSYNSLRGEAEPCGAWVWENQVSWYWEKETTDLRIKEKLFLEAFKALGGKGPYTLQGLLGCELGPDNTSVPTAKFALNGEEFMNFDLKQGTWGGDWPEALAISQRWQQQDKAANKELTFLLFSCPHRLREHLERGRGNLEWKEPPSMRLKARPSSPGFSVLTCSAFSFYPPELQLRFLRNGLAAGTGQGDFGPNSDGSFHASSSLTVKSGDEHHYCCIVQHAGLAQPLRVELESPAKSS
T1 sequence (P61769 21-119, chain 2 of 2): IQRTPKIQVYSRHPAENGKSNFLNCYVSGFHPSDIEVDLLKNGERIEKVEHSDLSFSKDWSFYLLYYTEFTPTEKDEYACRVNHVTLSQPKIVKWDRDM

B1: B4A_03 (other)
chain: CPPCPAPELLGGPSVFLFPPKPKDTLMISRTPEVTCVVVDVSHEDPEVKFNWYVDGVEVHNAKTKPWEEQYNSTYRVVSVLPVLHQDWLNGKEYKCKVSNKALPVPIEKTISKAKGQPREPQVYTLPPSRDELTKNQVSLTCLVKGFYPSDIAVEWESNGQPENNYKTTPPVLDSDGSFFLYSKLTVDKSRWQQGNVFSCSVMHEALHSHYTQKSLSLSPGK
notes: EU numbering
As to B1, in the assay with FcRn-p3 fusion protein [1], the Ratio/Fc-WT is 3.7 fold.

B2: L6B_31 (other)
chain: CPPCTAPELLGGPSVFLFPPKPKDTLMISRTPEVTCVVVDVSHEDPEVKFNWYVDGVEVHNAKTKPREEQYNSTYRVVSALAVLHQDWLNGKEYKCKVSNKALPAPIEKTISKAKGQPREPQVYTLPPSRDELTKNQVSLTCLVKGFYPSDIVVEWESNGQPENNYKTTPPVPDSDGSFFLYSKLTVDKSRWQQGNVFSCSVMHEALHSHYTQKSLSLSPGK
notes: EU numbering
B2: in the assay with FcRn-p3 fusion protein [1], the Ratio/Fc-WT was 6.3 fold.

B3: T5A_87 (other)
chain: CPPCPAPELLGGPSVFLFPPKPKDTLMISRTPEVTCVVVDVSHEDPEVKFNWYVDGVEVHNAKTKPREEQYNSTYRVVSVLTVLHQDWLDGKEYKCKVSNKALPVPIEKTISKAKGQPREPQVYTLPPSRDELTKNRVSLTCLVKGFYPSDIAVEWESNGQPENNYKTTPPVLDSDGSFFLYSKLTVDKSRWQQGNVFSCSVMHEALHYHYTQKSLSLSPGK
notes: EU numbering
On to B3, for which the Ratio/Fc-H with FcRn-p3 fusion protein [2] and with FcRn-p3 fusion protein [3] was 7.8 fold throughout. Moreover, the Ratio/FWT with FcRn-p3 fusion protein [4] is 25 fold. In addition, the Ratio/Fc-WT in the assay with FcRn-p3 fusion protein [5] was 25 fold.

B4: B5A_17 (other)
chain: CPPCPAPELLGGPSVFLFPPKPKDTLMISRTPEVTCVVVDVSHEDPEVKFNWYVDGVEVHNAKTKPREEQYNSTYRVVSVLTVLHQDWLDGKEYKCKVSNKALPAPIEKTISKAKGQPREPQVYTLPPSRDELTKNRVSLTCLVKGFYPSDIAVEWESNGQPENNYKTTPPVLDSDGSFFLYSKLTVDKSRWQQGNVFSCSVMHEALHYHYTQKSLSLSPGK
notes: EU numbering
With B4, in the assay with FcRn-p3 fusion protein [1], the Ratio/Fc-WT turned out to be 4.6 fold.

B5: T6A_75 (other)
chain: CPPCTAPELLGGPSVFLFPPKPKDTLMISRTPEVTCVVVDVSHEDPEVKFNWYVDGVEVHNAKTKPREEQYNSTYRVVSVLTVLHQDWLDGKEYKCKVSNKALPAPIEKTISKAKGQPREPQVYTLPPSRDELTKNRVSLTCLVKGFYPSDIAVEWESNGQPENNYKTTPPVLDSDGSFFLYSKLTVDKSRWQQGNVFSCTVMHEALHYHYTQKSLSLSPGK
notes: EU numbering
Take B5: the Ratio/Fc-H with FcRn-p3 fusion protein [2] and with FcRn-p3 fusion protein [3] was 5.7 fold throughout. Moreover, in the assay with FcRn-p3 fusion protein [4], the Ratio/FWT was 18.3 fold. In addition, in the assay with FcRn-p3 fusion protein [5], the Ratio/Fc-WT stood at 18.3 fold.

B6: B5A_16 (other)
chain: CPPCPAPELLGGPAVFLFPPKPKDTLMISRTPEVTCVVVDVSHEDPEVKFNWYVDGVEVHNAKTKPREEQYNGTYRVVSVLTVLHQDWLDGKEYKCKVSNKALPAPIEKTISKAKGQPREPRVYTLPPSRDELTKNQVSLTCLVKGFYPSDIAVEWESNGQPENNYKTTPPVLDSDGSFFLYSKLTVDKSRWQQGNVFSCSVMHEALHYHYTQKRLSLSPGK
notes: EU numbering
For B6, in the assay with FcRn-p3 fusion protein [1], the Ratio/Fc-WT was determined as 5.6 fold.

B7: T5A_57 (other)
chain: CPPCPAPELLGGPSVLLFPPKPKDTLMISRTPEVTCVVVDVSHEDPEVKFNWYVDGVEVHNAKTKPREEQYNSTYRVVSVLTVLHQDWLDGKEYKCKVSNKALPVPIEKTISKAKGQPREPQVYTLPPSRDELTKNQVSLTCLVKGFYPSDIAVEWESNGQPENNYRTTPPVLDSDGSFFLYSKLTVDKSRWQQGNVFSCSVMHEALHYHYTQKSLSLSPGK
notes: EU numbering
As for B7, the Ratio/Fc-H with FcRn-p3 fusion protein [2] and with FcRn-p3 fusion protein [3] was 4.9 fold in each case. Further, the Ratio/FWT in the assay with FcRn-p3 fusion protein [4] was 15.8 fold. Further, the Ratio/Fc-WT with FcRn-p3 fusion protein [5] worked out at 15.8 fold.

B8: L3A_39 (other)
chain: CPPCPAPELLGGPSVFLFPPKPKDTLMISRTPEVTCVVVDVSHEDPEVKFNWYVDGVEVHNAKTKPREEQYNSTYRVVSVLTVLHQDWLNGKEYKCKVSNKALPAPIEKTISKAKGQPREPQVYTLPPSRDELTKNQVSLTCLVKGFYPGDIAVEWESNGQPENNYKTTSPVLDSDGSFFLYSKLTVDKSRWQQGNVFSCSVMHEALHSHYTQKSLSLSPGK
notes: EU numbering
As to B8, the Ratio/Fc-WT in the assay with FcRn-p3 fusion protein [1] amounted to 3.2 fold.

B9: B6A_31 (other)
chain: CPPCPAPELLGGPSVFLFPPKPKDTLMISRTPEVTCVVVDVSHEDPEVKFNWYVDGVEVHNAKTKPREEQYNSTYRVVSVLTVLHQDWLNGKEYKCKVSNKALPAPIEKTISKAKGQPREPQVYTLPPSRDELTKNQVSLTCLVKGFYPGDIAVEWESNGQPENNYKTTPPVLDSDGSFFLYSKLTVDKSRWQQGNVFSCSVLHEALPNHYTQKSLSLSPGK
notes: EU numbering
For the molecule B9, the Ratio/Fc-WT with FcRn-p3 fusion protein [1] was found to be 5 fold.

B10: T5A_93 (other)
chain: CPPCPAPELLGGPSVFLFPPKPKDTLMISRTPEVTCVVVDVSHEDPEVKFNWYVDGVEVHNAKTKPREEQYNSTYRVVSALTVLHQDWLDGKEYKCKVSNKALPVPIEKTISKAKGQPREPQVYTLPPSRDELTKNQVSLTCLVKGFYPSDIAVEWESNGQPENNYKTTAPVLDSDGSFFLYSKLTVDKSRWQQGNVFSCSVMHEALHYHYTQKSLSLSPGK
notes: EU numbering
Turning to B10, the Ratio/Fc-H with FcRn-p3 fusion protein [2] and with FcRn-p3 fusion protein [3] was 8 fold each time. Also, the Ratio/FWT with FcRn-p3 fusion protein [4] is 25.7 fold. Moreover, the Ratio/Fc-WT with FcRn-p3 fusion protein [5] was found to be 25.7 fold.

B11: T6A_85 (other)
chain: CPPCPAPELLGGPSVFLFPPKPKDALMISRTPEVTCVVVDVSHEDPEVKFNWYVDGVEVHNAKTKPREEQYNSTYRVVSVLTVLHQDWLDGKEYKCKVSSKALPVPIEKTISKAKGQPREPQVYTLPPSRDELTKNQVSLTCLVKGFYPSDIAVEWESNGQPENNYKTTPPVLDSDGSFFLYSKLTVDKSRWQQGNVFSCSVMHEALHYHYTQKSLSLSPGK
notes: EU numbering
As to B11, the Ratio/Fc-H in the assay with FcRn-p3 fusion protein [2] and with FcRn-p3 fusion protein [3] was 5.1 fold throughout. The Ratio/FWT with FcRn-p3 fusion protein [4] is 16.3 fold. For the same molecule, the Ratio/Fc-WT with FcRn-p3 fusion protein [5] was 16.3 fold.

B12: T5A_55 (other)
chain: CPPCLAPELLGGPSVLLLPPKPKDTLMISRTPEVTCVVEDVSHEDPEVKFNWYVDGVEVHNAKTKPREEQYNSTYRVVSVLPVLHQDWLNGKEYKCKVSNKALPAPIEKTISKAKGQPREPQVYTLPPSRDELTKNQVSLTCLVKGFYPSDIVVEWESNGQPENNYKTTPPVLDSDGSFFLYSKLTVDKSRWQQGNVFSCSVMHEALHNHYTQKSLSLSPGK
notes: EU numbering
With B12, the Ratio/Fc-H with FcRn-p3 fusion protein [2] and in the assay with FcRn-p3 fusion protein [3] was 5.6 fold in each case. For the same molecule, in the assay with FcRn-p3 fusion protein [4], the Ratio/FWT came to 17.9 fold. The Ratio/Fc-WT with FcRn-p3 fusion protein [5] was determined as 17.9 fold.

B13: B6A_41 (other)
chain: CPPCPAPELLGGPSVFLFPPKPKDTLMISRTPEVTCVVVDVSHEDPEVKFNWYVDGVEVHNAKTKPREEQYNSTYRVVSVLTVLHQDWLNGKEYKCKVSNKALPAPIEKTISKAKGQPREPQVYTLPPSRDELTKNQVSLTCLVKGFYPSDIAVEWESNGQPENNYKTTPPVLDSDGSFFLYSKLTVDKSRWQQGNVFSCSVMHEALHYHYTRKSLSLSPGE
notes: EU numbering
On to B13, for which, in the assay with FcRn-p3 fusion protein [1], the Ratio/Fc-WT came to 4.3 fold.

B14: L4A_28 (other)
chain: CPPCPAPELLGGPSVFLFPPKPKDTLMISRTPEVTCVVVDVSHEDPEVKFNWYVDGVEVHNAKTKPREEQYNSTYRVVSVLTVLHQDWLNGKEYKCKVSNKALPAPIEKTISKAKGQPREPQVYTLPPSRDELTKNQVSLTCLVKGFYPSDIAVEWESNGQPENNYKTTPPVLDSDGSFFLYSKLTVDKSRWQQGNVFSCSVLHEALHSHYTRKSLSLSSGK
notes: EU numbering
For the molecule B14, the Ratio/Fc-WT with FcRn-p3 fusion protein [1] was 5.2 fold.

B15: B5A_25 (other)
chain: CPPCPAPELLGGPSVFLLPPKPKDTLMISRTPEVTCVVVDVSHEDPEVKFNWYVDGVEVHNAKTKPREEQYNSTYRVVSVLTVLHQDWLDGKEYKCKVSNKALPAPIEKTISKAKGQPREPQVYTLPPSRDELTKNQVSLTCLVKGFYPSDIAVEWESNGQPENNYKTTPPVLDSDGSFFLYSKLAVDKSRWQQGNVFSCSVMHEALHSHYTQKSLSLSPGK
notes: EU numbering
On to B15, for which, in the assay with FcRn-p3 fusion protein [1], the Ratio/Fc-WT worked out at 3.6 fold.

B16: B6A_20 (other)
chain: CPPCPAPELLGGPSVFLFPPKPKDTLMISRTPEVTCVVVDVSHEDPEVKFNWYVDGVEVHNAKTKPREEQYNSTYRVVSVLTVLHQDWLNGKEYTCKVSNKALPAPIEKTISKAKGQPREPQVYTLPPSRDELTKNQVSLTCLVKGFYPSDIAVEWESNGQPENNYKTTPPVLDSDGSFFLYSKLTVDKSRWQQGNVFSCSVMHEALHYHYTQRSLSLSPGE
notes: EU numbering
For the molecule B16, the Ratio/Fc-WT in the assay with FcRn-p3 fusion protein [1] stood at 3.7 fold.

B17: S3A_06 (other)
chain: CPPCTTPELLGGPSVFLFPPKPKDTLMISRTPEVTCVVVDVSHEDPEVKFNWYVDGVEVHNAKTKPREEQYNSTYRVVSVLTVLHQDWLNGKEYKCKVSNKALPAPIEKTISKAKGQPREPQVYTLPPSRDELTKNQVSLTCLVKGFYPSDIVVEWESNGQPENNYKTTPPVLDSDGSFFLYSKLTVDKSRWQQGNVFSCSVMHEALHNHYTQKSLSLSPGK
notes: EU numbering
On to B17, for which the Ratio/Fc-WT with FcRn-p3 fusion protein [1] was found to be 3.6 fold.

B18: T7A_92 (other)
chain: CPPCPAPELLGGPSVFLFPPKPKDTLMISRTPEVTCVVEDVSHEDPEVKFNWYVDGVEVHNAKTKPREEQYNSTYRVVSVLTVLHQDWLNGKEYKCKVSNKALPAPIEKTISKAKGQPREPQVYTLPPSRDELTKNQVSLTCLVKGFYPSDIAVEWESNGQPENNYKTTPLVLDSDGSFFLYSKLTVDKNRWQQGNVFSCSVMHEALHSHYTQKSLSLSPGK
notes: EU numbering
Take B18: the Ratio/Fc-H with FcRn-p3 fusion protein [2] and in the assay with FcRn-p3 fusion protein [3] was 6.7 fold in each case. Moreover, the Ratio/FWT with FcRn-p3 fusion protein [4] stood at 21.4 fold. Also, the Ratio/Fc-WT in the assay with FcRn-p3 fusion protein [5] stood at 21.4 fold.

B19: S4A_05 (other)
chain: CPPCPAPELLGGPSVFLFPPKPKDTLMISRTPEVTCVVVDVSHEDPEVKFNWYVDGVEVHNAKTKPREEQYNSTYRVVSVLTVLHQDWLNGKEYKCKVSNKALPAPIEKTISKAKGQPREPQVYTLPPSRDELTKNQVSLTCLVKGFYPSDIVVEWESNGQPENNYKTTPPVLDSAGSFFLYSKLTVDKSRWQQGNVFSCSVMHEALHYHYTQKSLSLSPGK
notes: EU numbering
Consider B19, for which the Ratio/Fc-WT in the assay with FcRn-p3 fusion protein [1] amounted to 3.7 fold.

The values above are taken from patent publication USRE46585 (LABORATOIRE FRANCAIS DU FRACTIONNEMENT ET DES …, dated 2017).
